Target: the molecule itself
Assay: transmission electron microscopy

Protein	binding result
encapsulin from Thermotoga maritima (TmEnc) nanocage (natural protein) MEFLKRSFAPLTEKQWQEIDNRAREIFKTQLYGRKFVDVEGPYGWEYAAHPLGEVEVLSDENEVVKWGLRKSLPLIELRATFTLDLWELDNLERGKPNVDLSSLEETVRKVAEFEDEVIFRGCEKSGVKGLLSFEERKIECGSTPKDLLEAIVRALSIFSKDGIEGPYTLVINTDRWINFLKEEAGHYPLEKRVEECLRGGKIITTPRIEDALVVSERGGDFKLILGQDLSIGYEDREKDAVRLFITETFTFQVVNPEALILLKF	binds
Cy7-labelled TmEnc (TmEnc^Cy7) nanocage (natural protein, Thermotoga maritima, sulfo-Cy7 conjugated to lysine residues on the outer surface (~50 dye molecules per nanocage)) MEFLKRSFAPLTEKQWQEIDNRAREIFKTQLYGRKFVDVEGPYGWEYAAHPLGEVEVLSDENEVVKWGLRKSLPLIELRATFTLDLWELDNLERGKPNVDLSSLEETVRKVAEFEDEVIFRGCEKSGVKGLLSFEERKIECGSTPKDLLEAIVRALSIFSKDGIEGPYTLVINTDRWINFLKEEAGHYPLEKRVEECLRGGKIITTPRIEDALVVSERGGDFKLILGQDLSIGYEDREKDAVRLFITETFTFQVVNPEALILLKF	binds

Source: publication doi:10.1101/2023.07.16.549228 (bioRxiv, 2023)
